# T1: human DLL1 (on transfected CHO cells) (human, UniProt O00548 18-723)
# T1 construct: whole, on cells; also called delta-like-1
# T1 sequence (looked up): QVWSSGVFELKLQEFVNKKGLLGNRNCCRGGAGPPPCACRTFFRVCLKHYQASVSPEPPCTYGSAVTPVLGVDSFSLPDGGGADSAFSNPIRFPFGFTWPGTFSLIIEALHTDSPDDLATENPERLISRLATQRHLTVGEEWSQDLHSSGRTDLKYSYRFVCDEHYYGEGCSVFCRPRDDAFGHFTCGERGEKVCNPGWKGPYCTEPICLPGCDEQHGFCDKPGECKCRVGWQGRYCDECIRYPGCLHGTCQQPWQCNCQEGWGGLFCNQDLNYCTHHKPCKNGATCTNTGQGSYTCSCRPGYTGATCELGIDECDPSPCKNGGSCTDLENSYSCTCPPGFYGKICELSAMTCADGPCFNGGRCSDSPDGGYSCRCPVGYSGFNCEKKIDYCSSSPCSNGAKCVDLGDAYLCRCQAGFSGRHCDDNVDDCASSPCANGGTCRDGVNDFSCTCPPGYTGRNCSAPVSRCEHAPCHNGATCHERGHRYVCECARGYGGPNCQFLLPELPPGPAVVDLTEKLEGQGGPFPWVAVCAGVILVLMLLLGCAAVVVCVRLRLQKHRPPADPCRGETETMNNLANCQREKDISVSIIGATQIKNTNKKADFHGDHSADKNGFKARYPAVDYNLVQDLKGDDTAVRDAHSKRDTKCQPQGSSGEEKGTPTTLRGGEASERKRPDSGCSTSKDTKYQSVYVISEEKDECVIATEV
# Columns and labels:
# pure recombinant Dll4 = target: T2, pure recombinant Dll4 (human, UniProt Q9NR61 27-524); test: SPR, Biacore A100; immobilized recombinant Dll4, antibody at 20, 10, 5, 2.5 and 1.2 µg/ml
# T2 construct: also called recombinant DLL4 ligand; immobilized Dll4
# [1] = target: T3, human Jagged1 (on transfected CHO cells) (human, UniProt P78504 34-1218); test: flow cytometry on transfected CHO cells (STL4 as one of the three)
# T3 construct: whole, on cells
# [2] = target: T4, human Jagged2 (on transfected CHO cells) (human, UniProt Q9Y219 24-1238); test: as above
# T4 construct: whole, on cells
# [3] = target: T1, human DLL1 (on transfected CHO cells); test: as above
# [4] = target: T5, mouse DLL4 (on transfected CHO cells) (mouse, UniProt Q9JI71 27-686); test: flow cytometry on transfected CHO cells (STL4 as one of 'all three')
# T5 construct: also called murine DLL4; murine Dll4
# T5 sequence (Q9JI71 other isoform, or with tags, fused parts or gaps limits assumed): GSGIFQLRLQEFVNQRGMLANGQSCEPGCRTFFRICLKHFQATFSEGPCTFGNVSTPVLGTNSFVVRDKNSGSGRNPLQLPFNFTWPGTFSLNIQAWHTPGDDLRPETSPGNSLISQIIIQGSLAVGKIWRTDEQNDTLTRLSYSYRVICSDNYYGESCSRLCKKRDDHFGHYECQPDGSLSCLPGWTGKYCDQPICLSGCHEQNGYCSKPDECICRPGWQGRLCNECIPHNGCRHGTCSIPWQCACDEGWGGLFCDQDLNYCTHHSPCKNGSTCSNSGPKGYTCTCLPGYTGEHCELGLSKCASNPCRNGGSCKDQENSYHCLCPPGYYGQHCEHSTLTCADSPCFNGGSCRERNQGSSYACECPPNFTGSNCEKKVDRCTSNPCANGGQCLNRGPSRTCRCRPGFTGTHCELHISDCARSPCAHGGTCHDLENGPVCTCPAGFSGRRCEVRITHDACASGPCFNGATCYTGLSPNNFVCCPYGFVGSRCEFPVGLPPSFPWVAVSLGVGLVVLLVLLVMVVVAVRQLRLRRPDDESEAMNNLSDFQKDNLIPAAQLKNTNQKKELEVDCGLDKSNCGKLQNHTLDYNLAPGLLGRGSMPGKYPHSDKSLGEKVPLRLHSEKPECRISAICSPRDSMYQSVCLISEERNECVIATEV
# T2 sequence (Q9NR61 27-524 limits assumed): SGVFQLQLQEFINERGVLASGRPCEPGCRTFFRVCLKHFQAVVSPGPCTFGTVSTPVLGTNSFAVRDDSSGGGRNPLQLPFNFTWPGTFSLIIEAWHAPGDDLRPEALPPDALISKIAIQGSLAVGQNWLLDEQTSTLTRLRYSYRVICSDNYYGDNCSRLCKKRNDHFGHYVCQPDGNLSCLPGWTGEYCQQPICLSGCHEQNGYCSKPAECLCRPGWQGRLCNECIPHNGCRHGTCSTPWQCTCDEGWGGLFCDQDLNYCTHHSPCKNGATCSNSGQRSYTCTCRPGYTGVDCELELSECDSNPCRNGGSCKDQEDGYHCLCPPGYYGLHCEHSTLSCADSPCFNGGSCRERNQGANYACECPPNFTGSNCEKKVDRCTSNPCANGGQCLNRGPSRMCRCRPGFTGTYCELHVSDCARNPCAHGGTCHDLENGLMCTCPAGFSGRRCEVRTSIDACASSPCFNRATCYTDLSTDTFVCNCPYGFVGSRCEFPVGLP
# T4 sequence (Q9Y219 24-1238): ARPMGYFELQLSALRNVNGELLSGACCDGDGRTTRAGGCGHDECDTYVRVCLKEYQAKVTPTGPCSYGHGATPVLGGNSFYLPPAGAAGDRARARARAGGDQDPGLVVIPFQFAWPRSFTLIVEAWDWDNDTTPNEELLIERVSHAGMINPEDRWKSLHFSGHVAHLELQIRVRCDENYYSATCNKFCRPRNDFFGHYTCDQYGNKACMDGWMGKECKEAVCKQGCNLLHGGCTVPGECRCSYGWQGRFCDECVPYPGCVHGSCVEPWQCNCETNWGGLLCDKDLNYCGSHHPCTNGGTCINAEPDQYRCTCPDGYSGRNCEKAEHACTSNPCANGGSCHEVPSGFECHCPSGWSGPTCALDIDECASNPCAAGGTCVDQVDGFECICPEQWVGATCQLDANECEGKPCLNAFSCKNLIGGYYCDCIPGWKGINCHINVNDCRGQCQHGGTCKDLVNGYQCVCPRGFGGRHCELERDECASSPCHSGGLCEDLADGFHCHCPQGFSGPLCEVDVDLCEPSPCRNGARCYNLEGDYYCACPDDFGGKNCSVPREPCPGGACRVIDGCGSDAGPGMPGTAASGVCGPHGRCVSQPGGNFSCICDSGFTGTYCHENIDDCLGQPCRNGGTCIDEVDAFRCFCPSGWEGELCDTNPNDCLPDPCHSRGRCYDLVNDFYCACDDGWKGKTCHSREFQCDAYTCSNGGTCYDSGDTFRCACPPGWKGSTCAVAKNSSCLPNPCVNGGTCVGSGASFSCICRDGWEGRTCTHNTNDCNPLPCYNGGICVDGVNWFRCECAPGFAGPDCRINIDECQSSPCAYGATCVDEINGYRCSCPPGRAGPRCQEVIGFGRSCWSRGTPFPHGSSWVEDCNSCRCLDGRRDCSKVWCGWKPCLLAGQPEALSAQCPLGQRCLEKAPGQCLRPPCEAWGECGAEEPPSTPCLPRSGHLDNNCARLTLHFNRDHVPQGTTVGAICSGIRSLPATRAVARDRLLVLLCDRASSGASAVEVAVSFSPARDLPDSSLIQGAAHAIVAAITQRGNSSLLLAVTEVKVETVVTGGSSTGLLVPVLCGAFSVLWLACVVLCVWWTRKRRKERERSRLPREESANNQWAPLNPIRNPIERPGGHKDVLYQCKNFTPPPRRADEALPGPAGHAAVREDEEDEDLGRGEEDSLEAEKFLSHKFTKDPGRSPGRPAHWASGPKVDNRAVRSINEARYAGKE
# T3 sequence (P78504 34-1218): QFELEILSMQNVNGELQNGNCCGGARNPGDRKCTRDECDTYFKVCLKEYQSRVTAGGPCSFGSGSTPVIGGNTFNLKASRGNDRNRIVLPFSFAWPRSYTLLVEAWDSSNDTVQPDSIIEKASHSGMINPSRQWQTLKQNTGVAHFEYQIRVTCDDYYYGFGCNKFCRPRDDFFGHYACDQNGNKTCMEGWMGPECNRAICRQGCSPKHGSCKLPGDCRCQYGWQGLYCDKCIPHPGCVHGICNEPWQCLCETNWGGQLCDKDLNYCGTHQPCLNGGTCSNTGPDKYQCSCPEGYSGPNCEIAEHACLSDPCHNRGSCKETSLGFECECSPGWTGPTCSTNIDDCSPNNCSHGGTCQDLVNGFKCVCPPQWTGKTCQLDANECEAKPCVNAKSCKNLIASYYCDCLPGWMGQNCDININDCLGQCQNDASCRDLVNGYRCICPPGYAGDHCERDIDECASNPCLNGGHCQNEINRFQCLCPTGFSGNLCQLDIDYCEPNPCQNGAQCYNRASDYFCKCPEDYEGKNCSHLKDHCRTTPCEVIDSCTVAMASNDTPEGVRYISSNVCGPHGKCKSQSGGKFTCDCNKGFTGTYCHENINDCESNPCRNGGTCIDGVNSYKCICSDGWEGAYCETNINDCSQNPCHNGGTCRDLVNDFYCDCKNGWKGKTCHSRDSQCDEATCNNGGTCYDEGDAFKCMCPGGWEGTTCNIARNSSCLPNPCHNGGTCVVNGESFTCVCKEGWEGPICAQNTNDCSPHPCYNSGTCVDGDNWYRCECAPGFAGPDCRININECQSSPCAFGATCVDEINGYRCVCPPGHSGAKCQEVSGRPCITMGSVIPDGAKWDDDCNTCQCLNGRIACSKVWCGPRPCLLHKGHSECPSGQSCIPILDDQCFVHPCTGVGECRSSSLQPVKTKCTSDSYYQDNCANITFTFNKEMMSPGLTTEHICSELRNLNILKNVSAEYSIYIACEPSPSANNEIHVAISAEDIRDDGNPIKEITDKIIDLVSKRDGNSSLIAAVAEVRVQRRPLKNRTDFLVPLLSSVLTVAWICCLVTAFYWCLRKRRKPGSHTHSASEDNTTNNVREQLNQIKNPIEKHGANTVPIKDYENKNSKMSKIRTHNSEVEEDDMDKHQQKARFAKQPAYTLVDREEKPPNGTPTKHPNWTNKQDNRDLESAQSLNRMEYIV
Ka (pure recombinant Dll4) [M⁻¹],Kd (pure recombinant Dll4) [nM],koff (pure recombinant Dll4) [s⁻¹],binding result [1],binding result [2],binding result [3],binding result [4],Binder
2.45e+09,0.408,8.79e-05,,,,,"cSTL4 (antibody, V domains shown, Chimeric form of STL4: mouse VH and VL fused to human IgG heavy and kappa constant regions, expressed from pCAcc vectors; also called chimeric anti-Dll4 antibody; chimeric antibody; not shown: human IgG heavy constant region CH1-H-CH2-CH3; human immunoglobulin kappa light chain constant region) VH: EVQLQQSGPELVKPGASVKMSCKASGYTFTSYVMHWVKQKPGQGLEWIGYIIPYNDGTKYNEKFKGKATLTSDKSSSTAYMELSSLTSEDSAVYYCARSEDYDHFDYWGQGTTVTVSS VL: QIVLSQSPVILSASPGEKVTMTCRASSSVSFMHWYQQKPGSSPKPWIYATSNLTSGVPTRFSGSGSGTSYSLTISRVEAEDAATYYCQQWSSNPFTFGSGTKLEIKR"
,,,no binding,no binding,no binding,no binding,"STL4 (antibody, V domains shown, Mouse monoclonal antibody (BALB/c hybridoma, purified from ascites); mouse IgG1 served as the control; also called anti-DLL4 antibody; anti-Dll4-antibody (STL4)) VH: EVQLQQSGPELVKPGASVKMSCKASGYTFTSYVMHWVKQKPGQGLEWIGYIIPYNDGTKYNEKFKGKATLTSDKSSSTAYMELSSLTSEDSAVYYCARSEDYDHFDYWGQGTTVTVSS VL: QIVLSQSPVILSASPGEKVTMTCRASSSVSFMHWYQQKPGSSPKPWIYATSNLTSGVPTRFSGSGSGTSYSLTISRVEAEDAATYYCQQWSSNPFTFGSGTKLEIKR"

# From patent US20100303812A1 (SMART TARGETING, published 2010)
